Data from article PMC3699631, “Posttranslational Modifications of the Histone 3 Tail and Their Impact on the Activity of Histone Lysine Demethylases In Vitro” (PLoS ONE, 2013).

What was measured:
[1] = tested on: PHF8; conditions: PHF8 with PHD domain; ref [5]; cited from earlier work
Text: The enzyme kinetics of FL-KDM4A and ...

[2] = molecular target: T1, human cc-KDM4A (Homo sapiens, UniProt O75164); assay: FDH-assay enzyme kinetics of H3 peptide demethylation, truncated KDM4A; format: biochemical; conditions: for K m / k cat / k cat /K m / demethylation / catalytic activity (in words): FDH-assay; for K m: 50 mM HEPES (pH 7.5), 50 mM NaCl, 50 µM FeSO4, 500 µM α-KG, 500 µM ascorbate, 2 mM NAD, substrate 10–1000 µM, NADH fluorescence 15–30 minutes; for K m / k cat / k cat /K m: triplicate; for k cat / k cat /K m: pH 7.5; for k cat: NADH fluorescence; for k cat /K m: SD by propagation of errors, unit: min^−1 * µM^−1 * 10^3; for demethylation / catalytic activity (in words): compared to H3(1–24)K9me3 where a change is stated
T1 construct: Truncated constructs of KDM4A and KDM4C containing only the catalytic cores (cc-KDM4A/cc-KDM4C); made in house
T1 sequence (O75164 1-350 limits assumed): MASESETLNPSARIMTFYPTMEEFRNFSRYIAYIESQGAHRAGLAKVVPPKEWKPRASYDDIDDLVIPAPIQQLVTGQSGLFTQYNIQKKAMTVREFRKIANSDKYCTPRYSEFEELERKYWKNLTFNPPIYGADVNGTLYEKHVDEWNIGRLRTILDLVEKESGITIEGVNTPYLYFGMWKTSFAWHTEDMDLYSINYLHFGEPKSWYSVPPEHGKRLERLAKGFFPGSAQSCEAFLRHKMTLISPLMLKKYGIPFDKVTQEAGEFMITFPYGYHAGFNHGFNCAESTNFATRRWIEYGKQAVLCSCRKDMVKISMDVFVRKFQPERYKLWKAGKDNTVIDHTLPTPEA
Procedure: (§1) The enzyme kinetics were measured using a Formaldehyde DeHydrogenase Assay (FDH-Assay) and the demethylation of substrates was confirmed when possible by MALDI-TOF-MS, see File S1 for details. The test solution contained 50 mM HEPES (pH 7.5), 50 mM NaCl, 50 µM FeSO4, 500 µM α-KG, 500 µM ascorbate, 2 mM NAD, approximately 0.05 unit of FDH and e.g. 4.88 µM KDM4C (enzyme concentration varied between batches). The reference solution was comprised of the same except substrate. The assay was initiated by adding various concentrations of H3 peptide substrates e.g. H3(1–24)K9me3 (10–1000 µM) and the increase in NADH fluorescence was measured over 15–30 minutes in 30 second intervals. Data analysis and kinetic values were obtained using programs Excel and GraphPad Prism® 5.0. For details, see File S1.
(§2) The standard deviations for k cat/K m were calculated using the statistic law of propagation of errors. Standard errors for Michaelis-Menten Kinetics were automatically given in GraphPad Prism®, with a 95% confidence interval. All enzyme kinetic curves were done in triplicate unless otherwise stated.
(§3) Test for activity of enzyme using the fluorescence FDH assay, determination of Vmax and Km of enzymes with substrate, expression and purification of cc-KDM4A and cc-KDM4C software and parameters for the FDH coupled assay, see Lohse et al.^21
as §2, with “kcat/ Km” for “k cat/K m”, “95 %” for “95%”

[3] = molecular target: T2, human cc-KDM4C (Homo sapiens, UniProt Q9H3R0); assay: FDH-assay enzyme kinetics of H3 peptide demethylation, truncated KDM4C; format: biochemical; conditions: for K m / demethylation / catalytic activity (in words) / k cat / k cat /K m: FDH-assay; for K m: 50 mM HEPES (pH 7.5), 50 mM NaCl, 50 µM FeSO4, 500 µM α-KG, 500 µM ascorbate, 2 mM NAD, substrate 10–1000 µM, e.g. 4.88 µM KDM4C, NADH fluorescence 15–30 minutes; for K m / k cat: triplicate; for demethylation / catalytic activity (in words): compared to H3(1–24)K9me3 where a change is stated; for k cat: pH 7.5, NADH fluorescence; for k cat /K m: pH 7.5, triplicate, SD by propagation of errors, unit: (min^−1 * µM^−1) * 10^3; for fold decrease in catalytic activity (k cat/K m): compared to H3(1–24)K9me3
T2 construct: Truncated constructs of KDM4A and KDM4C containing only the catalytic cores (cc-KDM4A/cc-KDM4C); made in house
T2 sequence (Q9H3R0 1-349 limits assumed): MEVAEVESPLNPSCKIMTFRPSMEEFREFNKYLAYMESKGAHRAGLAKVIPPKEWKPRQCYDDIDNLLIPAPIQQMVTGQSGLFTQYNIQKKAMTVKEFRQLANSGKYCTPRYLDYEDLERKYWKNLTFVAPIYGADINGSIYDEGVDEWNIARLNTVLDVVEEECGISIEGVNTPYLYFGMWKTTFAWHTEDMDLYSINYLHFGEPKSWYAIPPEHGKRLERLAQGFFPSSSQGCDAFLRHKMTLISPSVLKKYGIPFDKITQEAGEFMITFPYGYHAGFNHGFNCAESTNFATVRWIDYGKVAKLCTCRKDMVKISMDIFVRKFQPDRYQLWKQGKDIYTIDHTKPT
Procedure: as §1, §2, §3
as §2, with “kcat/ Km” for “k cat/K m”, “95 %” for “95%”

Row | Substance | change of K m [1] | change of k cat [1] | fold difference in catalytic activity between cc-KDM4A and cc-KDM4C ([2]; cc-KDM4A versus cc-KDM4C) [fold] | K m ([2]; cc-KDM4A) | k cat ([2]; cc-KDM4A) | k cat /K m ([2]; cc-KDM4A) | demethylation / catalytic activity (in words) ([2]; cc-KDM4A) | fold increase in k cat/K m ([2]; cc-KDM4A, compared to H3(1–24)K9me3) [fold] | K m [3] | demethylation / catalytic activity (in words) [3] | k cat [3] | k cat /K m [3] | fold decrease in catalytic activity (k cat/K m) [3] [fold]
1 | H3(1–24)K4me3-K9me2: H3(1–24) substrate with trimethylated K4 and dimethylated K9 | a decrease in K m | an increase in k cat |  |  |  |  |  |  |  |  |  |  | 
2 | H3(1–24)K9me3K14(ac): histone peptide containing H3K9me3 in combination with acetylation of K14 |  |  | 10 | 33±4 | 1.0±0.03 | 30.3±3.8 | an increase in the enzymatic catalytic efficiency | 3 | 35.2±20 | a decrease | 0.1±0.01 | 2.8±0.2 | 3
3 | H3(1–24)T3(ph)K9me3: phosphorylation of threonine 3 in combination with lysine 9 trimethylation |  |  |  | 162±15 | 1.2±0.04 | 7.4±0.7 | did not prevent demethylation |  | 207±50 | did not prevent demethylation | 0.38±0.04 | 1.8±0.1 | 5
